In article PMC8372783:

How the values were obtained:
thrombin [1] = biological target: T1, thrombin (human, UniProt P00734;P00734 328-363;364-622); assay: affinity probe capillary electrophoresis
thrombin [2] = biological target: T1, thrombin; assay: affinity probe capillary electrophoresis; remark: listed apart in the source
thrombin [3] = biological target: T1, thrombin; assay: fluorescence anisotropy
thrombin [4] = biological target: T1, thrombin; assay: fluorescence anisotropy; remark: listed apart in the source
thrombin [5] = biological target: T1, thrombin; assay: fluorescence anisotropy; remark: listed apart in the source
thrombin [6] = biological target: T1, thrombin; assay: fluorescence anisotropy; remark: listed apart in the source
thrombin [7] = biological target: T1, thrombin; assay: affinity probe capillary electrophoresis; remark: listed apart in the source
thrombin [8] = biological target: T1, thrombin; assay: fluorescence anisotropy; remark: listed apart in the source
thrombin [9] = biological target: T1, thrombin; assay: fluorescence anisotropy; remark: listed apart in the source

Binder | apparent K (half saturation) (thrombin [1]) | apparent K (half saturation) (thrombin [2]) | apparent K (half saturation) (thrombin [3]) | apparent K (half saturation) (thrombin [4]) | apparent K (half saturation) (thrombin [5]) | apparent K (half saturation) (thrombin [6]) | Kd (thrombin [7]) | apparent K (half saturation) (thrombin [8]) | apparent K (half saturation) (thrombin [9])
GGTTGGTGTGGTTGG (structured_DNA) [15mer Fl (FAM)] | 49.2 ± 1.2 nM | 60.9 ± 5.3 nM |  |  |  |  |  |  | 
GGTTGGTGTGGTTGG (structured_DNA) [15mer, Texas Red] |  |  | 25 ± 1.5 nM | 23.7 ± 1.1 nM | 30.4 ± 2.6 nM | 51.8 ± 2.9 nM | 4.5 ± 1.4 nM | 27.3 ± 1.6 nM | 29.7 ± 1.1 nM
